According to patent US20240166737A1 (Janssen / Centocor, published 2024):

Key:
[1] = target: T1, CD3 epsilon on human T-cells (human, UniProt P07766 23-207); experiment: cell-based or functional assay
[2] = target: human MSLN on the cell surface (human, UniProt Q13421 296-598); experiment: flow cytometry (MFI PE) on OVCAR-8 cells
[3] = target: T2, human MSLN on the cell surface (human, UniProt Q13421 296-598); experiment: flow cytometry (MFI PE) on OVCAR-8 cells
T2 construct: on cells stands the processed GPI-anchored 40 kDa MSLN; also called membrane MSLN; MSLN on H838, OVCAR-8 (OVCAR8), OVCAR-8 K1/C8, SK-OV-3 cells

[4] = target: T1, CD3 epsilon on human T-cells; experiment: cell-based or functional assay; remark: listed apart in the source
[5] = target: T1, CD3 epsilon on human T-cells; experiment: T-cell binding assay, FIG. 15
[6] = target: T3, MSLN with Met593Val on cells homozygous for SNP rs1135210 (SNP G|G) (human, UniProt Q13421 296-598); experiment: binding to homozygous SNP-positive cells
T3 construct: also called homozygous SNP-positive cells; BxPC3, NCI-H322
T3 sequence (Q13421 other isoform, or with tags, fused parts or gaps M593V M593V limits assumed): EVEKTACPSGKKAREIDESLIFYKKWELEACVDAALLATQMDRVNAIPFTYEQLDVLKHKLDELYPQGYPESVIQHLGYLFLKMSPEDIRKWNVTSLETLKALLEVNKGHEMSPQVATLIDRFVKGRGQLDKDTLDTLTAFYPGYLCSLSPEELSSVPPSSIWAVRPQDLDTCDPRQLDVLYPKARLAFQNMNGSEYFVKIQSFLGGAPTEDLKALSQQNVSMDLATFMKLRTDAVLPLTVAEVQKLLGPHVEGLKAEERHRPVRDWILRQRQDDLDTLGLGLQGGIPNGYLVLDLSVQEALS

[7] = target: T4, MSNW10, recombinant full length human MSLN (human, UniProt Q13421 296-598); experiment: SPR, recombinant full-length human MSLN
T4 construct: also called MSNW10.002; FL-MSLN
T4 sequence (Q13421 other isoform, or with tags, fused parts or gaps limits assumed): as the sequence (Q13421 other isoform, or with tags, fused parts or gaps M593V M593V limits assumed) above, with V298M counted along it

[8] = target: T2, human MSLN on the cell surface; experiment: high content imaging, surface staining of OVCAR8 cells
Protocol: OVCAR8 cells were cultured in RPMI 1640 medium supplemented with 10% FCS, 1% L-glutamine and 1% Gentamycin and seeded in Greiner CELLSTAR plate one day before experiment. 24 h after seeding, antibody mixture was prepared by diluting MSLN and control antibodies in Table 21 in full media containing CellMask™ Deep Red Plasma Membrane Stain (ThermoFisher, C10046) in 12 concentrations each with 3 folds dilution starting from 20 μg/ml and 20 μl of which were added directly to the cells in 20 μl. Antibodies were allowed for binding to the cell surface for 2h inside the incubator (37°) C. and the surface bound antibodies were fixed for 15 min at RT by directly adding 30 ul of 10% Formaldehyde (04018-1, Polysciences). Afterwards residual Formaldehyde was removed by washing the cells twice with PBS and the primary antibodies were stained with secondary antibodies (Alexa Fluor 488 goat anti-human IgG, Invitrogen, A11013) complemented with Hoechst 33342 (H3570, ThermoFisher) and HCS CellMask™ Deep Red Stain (ThermoFisher, H32721) in PBS for 1h at RT. After removing unbound antibodies and other dyes by washing the cells 3 times with PBS cells were imaged on the CellVoyager 7000 (Yokogawa, Tokyo, Japan) using a 40×/0.95 objective. Of each well, 9 fields were imaged. Image analysis was performed with Acapella (PerkinElmer, Waltham, MA, USA) and the results stored in Phaedra (OpenAnalytics, Antwerp, Belgium). Data analysis was done in R (www.r-project.org).
The data was then fitted using the four-parameter logistic using least-squares regression, keeping the lower boundary fixed at 0.

[9] = target: T5, 8 AA stub (a.a. 296-303 of SEQ ID NO: 247) (human); experiment: competition of OVCAR8 cell binding by the peptide
T5 construct: also called 8 AA Peptide; peptide of the last 8 C-terminal amino acids
T5 peptide: LSMQEALS

[10] = target: T6, 13 AA stub (a.a. 291-303 of SEQ ID NO: 247) (human); experiment: SPR, mAb captured, peptide injected
T6 peptide: YLVLDLSMQEALS
Protocol: (§1) The binding was assessed by SPR. Briefly, GAH-Fc was used to capture mAbs on C4 sensor chip followed by antigen injection starting at 30 nM (14 amino acid stub), 100 nM (10-13 amino acid stubs), or 1000 nM (7-9 amino acid stubs) progressing in a 3-fold dilution series in single cycle kinetics mode. HBSP+0.01% BSA was used in the assay.

[11] = target: T7, 10 AA stub (a.a. 294-303 of SEQ ID NO: 247) (human); experiment: SPR, mAb captured, peptide injected
T7 peptide: LDLSMQEALS
Protocol: as §1

[12] = target: T8, 7 AA stub (a.a. 297-303 of SEQ ID NO: 247) (human); experiment: SPR, mAb captured, peptide injected
T8 peptide: SMQEALS
Protocol: as §1

[13] = target: T9, 14 AA stub (a.a. 290-303 of SEQ ID NO: 247) (human); experiment: SPR, mAb captured, peptide injected
T9 peptide: GYLVLDLSMQEALS
Protocol: as §1

[14] = target: T10, 11 AA stub (a.a. 293-303 of SEQ ID NO: 247) (human); experiment: SPR, mAb captured, peptide injected
T10 peptide: VLDLSMQEALS
Protocol: as §1

[15] = target: T11, 9 AA stub (a.a. 295-303 of SEQ ID NO: 247) (human); experiment: SPR, mAb captured, peptide injected
T11 peptide: DLSMQEALS
Protocol: as §1

[16] = target: T12, 12 AA stub region peptide LVLDLSMQEALS (human); experiment: SPR
T12 construct: free N-terminus; also called 12 AA Peptide
T12 peptide: LVLDLSMQEALS

[17] = target: T2, human MSLN on the cell surface; experiment: binding to H838 cells with and without 100 nM recombinant shed MSLN (MSNW11); the two curves lie on each other
Source text: (§2) Table 16 lists the immunization campaigns, antigens used, and number of clones returned at each stage of screening. Clones from which antibody sequences were successfully recovered were first screened for binding to recombinant full length human MSLN (MSNW10) and H838 cells that express MSLN on the cell surface. Binders were further screened for binding to cells in the presence of recombinant soluble MSLN lacking the C-terminal 7 AAs (MSNW11). This form of recombinant MSLN represented the product of cleavage at the closest cleavage site to the C-terminus known at the time, therefore, it theoretically represented the longest form of shed MSLN. The final concentration of shed MSLN in the assays was 100 nM.

[18] = target: T13, MSNW11, recombinant soluble (shed) MSLN lacking the C-terminal 7 AAs (human, UniProt Q13421 296-591); experiment: H838 cell binding with shed MSLN (MSNW11) added
T13 construct: domain: soluble MSLN lacking the C-terminal 7 AAs; also called MSNW11.002; soluble MSLN
T13 sequence (Q13421 other isoform, or with tags, fused parts or gaps limits assumed): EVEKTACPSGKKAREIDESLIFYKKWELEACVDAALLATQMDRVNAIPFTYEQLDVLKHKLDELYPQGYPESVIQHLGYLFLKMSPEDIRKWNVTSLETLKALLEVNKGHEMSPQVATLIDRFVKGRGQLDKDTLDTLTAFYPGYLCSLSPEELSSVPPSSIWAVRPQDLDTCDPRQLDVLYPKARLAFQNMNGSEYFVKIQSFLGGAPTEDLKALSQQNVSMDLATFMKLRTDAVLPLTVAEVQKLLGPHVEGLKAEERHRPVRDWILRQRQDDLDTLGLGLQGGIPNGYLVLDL
Source text: as §2

recombinant CD3 = target: T14, recombinant CD3 (UniProt P07766 23-126); experiment: SPR
T14 construct: also called CD3 (SPR)
T14 sequence (P07766 23-126): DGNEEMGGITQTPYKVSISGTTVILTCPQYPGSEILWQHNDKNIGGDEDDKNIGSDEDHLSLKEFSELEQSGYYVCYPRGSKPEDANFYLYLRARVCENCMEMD

[19] = target: T1, CD3 epsilon on human T-cells; experiment: T cell binding
[20] = target: T4, MSNW10, recombinant full length human …; experiment: SPR, additional experiments
[21] = target: T12, 12 AA stub region peptide LVLDLSMQEALS; experiment: SPR, mAb captured, peptide injected
Protocol: as §1

[22] = target: T5, 8 AA stub (a.a. 296-303 of SEQ ID NO: …); experiment: SPR, mAb captured, peptide injected
Protocol: as §1

T1 sequence (P07766 23-207 limits assumed): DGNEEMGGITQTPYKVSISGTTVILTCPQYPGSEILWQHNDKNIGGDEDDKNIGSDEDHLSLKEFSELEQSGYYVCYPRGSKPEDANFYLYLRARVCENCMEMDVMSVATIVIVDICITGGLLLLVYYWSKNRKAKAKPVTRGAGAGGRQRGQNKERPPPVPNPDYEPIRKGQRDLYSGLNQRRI

B1: MNC3B55 (bispecific antibody)
scFv: EVQLVESGGGLVKPGGSLRLSCAASGFTFSRYNMNWVRQAPGKGLEWVSSISTSSNYIYYADSVKGRFTFSRDNAKNSLDLQMSGLRAEDTAIYYCTRGWGPFDYWGQGTLVTVSSGGSEGKSSGSGSESKSTGGSDIQMTQSPSSLSASVGDRVTITCRARQSIGTAIHWYQQKPGKAPKLLIKYASESISGVPSRFSGSGSGTDFTLTISSLQPEDFATYYCQQSGSWPYTFGQGTKLEIK
VH: QVQLVESGPGQVKPSQTLSLTCAISGDSVSSNSAAWNWIRQSPSRGLEWLGRTYYRSKWYNDYAVSVKSRITINPDTSKNQFSLQLNSVTPEDTAVYYCARRDYSSGGFDYWGQGTTVTVSS
VL: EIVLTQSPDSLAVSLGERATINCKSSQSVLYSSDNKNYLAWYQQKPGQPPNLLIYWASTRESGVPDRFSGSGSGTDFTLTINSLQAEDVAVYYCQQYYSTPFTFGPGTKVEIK
In the case of B1, the “cytotoxicity EC50, NCI-H838 cells, pan T-cells 5:1 E:T, 48 hours” value [1] is reported as 0.027 nM.

B2: MNC3B192 (bispecific antibody)
chain 1: QSALTQPASVSGSPGQSITISCTGTSSNIGTYKFVSWYQQHPGKAPKVMIYEVSKRPSGVSNRFSGSKSGNTASLTISGLQAEDEADYYCVSYAGSGTLLFGGGTKLTVLGGSEGKSSGSGSESKSTGGSQVQLQQSGPGLVKPSQTLSLTCAISGDSVFNNNAAWSWIRQSPSRGLEWLGRTYYRSKWLYDYAVSVKSRITINPDTSKNQFSLQLNSVTPEDTAVYYCARGYSSSFDYWGQGTLVTVSS
chain 2: QVQLVESGPGQVKPSQTLSLTCAISGDSVSSNSAAWNWIRQSPSRGLEWLGRTYYRSKWYNDYAVSVKSRITINPDTSKNQFSLQLNSVTPEDTAVYYCARRDYSSGGFDYWGQGTTVTVSS
chain 3: not shown
For B2, the “EC50 (read off the curve)” value [2] was roughly 8 nM.

B3: MNC3B193 (bispecific antibody)
scFv: DIQMTQSPSSLSASVGDRVTITCRARQSIGTAIHWYQQKPGKAPKLLIKYASESISGVPSRFSGSGSGTDFTLTISSLQPEDFATYYCQQSGSWPYTFGQGTKLEIKGGSEGKSSGSGSESKSTGGSEVQLVESGGGLVKPGGSLRLSCAASGFTFSRYNMNWVRQAPGKGLEWVSSISTSSNYIYYADSVKGRFTFSRDNAKNSLDLQMSGLRAEDTAIYYCTRGWGPFDYWGQGTLVTVSS
VH: QVQLVESGPGQVKPSQTLSLTCAISGDSVSSNSAAWNWIRQSPSRGLEWLGRTYYRSKWYNDYAVSVKSRITINPDTSKNQFSLQLNSVTPEDTAVYYCARRDYSSGGFDYWGQGTTVTVSS
VL: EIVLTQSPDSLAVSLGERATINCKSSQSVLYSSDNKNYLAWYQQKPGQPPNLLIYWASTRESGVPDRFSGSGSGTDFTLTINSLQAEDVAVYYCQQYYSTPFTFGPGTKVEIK
notes: Bipod: MSNB457 Fab x CD3W245 LH scFv-Fc; also called CD3W245 LH containing Bipod
With B3 the “EC50 (read off the curve)” value [3] was roughly 8 nM, the “AC90 [nM], cytotoxicity, 1:1 E:T, 72 hours” value [4] was 0.25 nM and the “Max. Activity, cytotoxicity, 1:1 E:T, 72 hours” value [4] was 91%. The “qAC50 [nM], cytotoxicity, 1:1 E:T, 72 hours” value [4] was 0.1 nM and the EC50 [5] was 46 nM.

B4: MNC3B130 (bispecific antibody)
scFv: DIQMTQSPSSLSASVGDRVTITCRARQSIGTAIHWYQQKPGKAPKLLIKYASESISGVPSRFSGSGSGTDFTLTISSLQPEDFATYYCQQSGSWPYTFGQGTKLEIKGGSEGKSSGSGSESKSTGGSEVQLVESGGGLVKPGGSLRLSCAASGFTFSRYNMNWVRQAPGKGLEWVSSISTSSNYIYYADSVKGRFTFSRDNAKNSLDLQMSGLRAEDTAIYYCTRGWGPFDYWGQGTLVTVSS
VH: QVQLVESGPGQVKPSQTLSLTCAISGDSVSSNSAAWNWIRQSPSRGLEWLGRTYYRSKWYNDYAVSVKSRITINPDTSKNQFSLQLNSVTPEDTAVYYCARRDYSSGGFDYWGQGTTVTVSS
VL: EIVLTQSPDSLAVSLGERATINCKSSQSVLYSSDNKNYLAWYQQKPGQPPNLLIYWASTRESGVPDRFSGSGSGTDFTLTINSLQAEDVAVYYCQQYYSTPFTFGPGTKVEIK
notes: MSNB457 Fab x CD3W245 LH scFv; Fc chain 1 T350V/L351Y/F405A/Y407V, Fc chain 2 T350V/T366L/K392/T394W; also called mrMSLN-MSNB457 x W245LH alternative heterodimerization scaffold
In the case of B4, the “cytotoxicity EC50, NCI-H838 cells, pan T-cells 5:1 E:T, 48 hours” value [1] is reported as 0.15 nM and the binding result [6] is reported as “no binding”.

B5: MSNB124 (antibody, V domains shown)
VH: QVQLQQSGPGLVKPSQTLSLTCAISGDSVSSNSVAWHWIRQSPSRGLEWLGRTYHRSKWYNDYAVSVKSRITINPDTSKNQFSLQLNSVTPEDTAVYYCARQILGALDYWGQGTLVTVSS
VL: DIVMTQTPLSLPVTPGEPASISCRSSQSLQFGNGNYLDWYLQKPGQSPQLLIYLGSNRASGVPDRFSGSGSGTDFTLKISRVEAEDVGVYYCMQVLQIPFTFGPGTKVDIK
notes: mAb
B5 was tested, and the Kd [7] was 6.4 nM, the IC50 [8] was 0.0735 µg/mL and the “Maximum Value (arbitrary units)” value [8] was 1.46e+07 arbitrary units. For the same binder, the binding result [9] was “no binding”, the Kd [10] was 14 nM and the binding result [11] was “no binding (tested: 100 nM)”. B5: no binding (tested: 1000 nM) [12]; binds [13]; no binding (tested: 100 nM) [14]. For the same binder, the binding result [15] was “no binding (tested: 1000 nM)”, the binding result [16] was “binds” and the “EC50 (read off the curve)” value [17] was roughly 0.4 nM. B5: no binding (tested: 100 nM) [18].

B6: CD3W245-LH-ScFv (scFv)
scFv: DIQMTQSPSSLSASVGDRVTITCRARQSIGTAIHWYQQKPGKAPKLLIKYASESISGVPSRFSGSGSGTDFTLTISSLQPEDFATYYCQQSGSWPYTFGQGTKLEIKGGSEGKSSGSGSESKSTGGSEVQLVESGGGLVKPGGSLRLSCAASGFTFSRYNMNWVRQAPGKGLEWVSSISTSSNYIYYADSVKGRFTFSRDNAKNSLDLQMSGLRAEDTAIYYCTRGWGPFDYWGQGTLVTVSS
Binder B6 has a Kd (recombinant CD3) of 0.5 to 1 nM and an EC50 [19] of 20 to 50 nM.

B7: MSLNB569 (antibody, V domains shown)
VH: QVQLQQSGPGLVKPSQTLSLTCAISGDSVSSTRAAWNWIRQSPSRGLEWLGRTYYRSKWYNDYTVSVKSRITINPDTSKNQFSLHLNSVTPEDSAVYFCARGNVGRVDFWGQGTLVTVSS
VL: EIVMTQSPLSLPVTPGEPASISCRSSQSLLHSDGYNYLDWYLQKPGQSPQLLIYLGSNRASGVPDRFSGSGSDTDFTLKISRVEAEDVGVYYCMQGLRTPLTFGPGTKVDIK
notes: mAb; also called MSLNB569.001; MSNB569
In the case of B7, the Kd [20] is reported as 3.4 nM, the IC50 [8] is reported as 0.166 µg/mL and the “Maximum Value (arbitrary units)” value [8] is reported as 1.6e+07 arbitrary units. For the same binder, the Kd [10] was 5.99 nM, the Kd [21] was 4.06 nM and the binding result [11] was “no binding (tested: 100 nM)”. For the same binder, the binding result [12] was “no binding (tested: 1000 nM)”, the binding result [22] was “no binding (tested: 1000 nM)” and the Kd [13] was 1.99 nM. B7: no binding (tested: 100 nM) [14]; no binding (tested: 1000 nM) [15]; no binding (tested: 100 nM) [18].
